From the Human Domainome abundance scans (Beltran et al. 2025)
± gives the uncertainty stated by the source.

Experiment: abundance fitness (aPCA) (normalised: wild type 0, dead -1); higher = more abundant; growth selection in yeast, the domain comes from the species named
Conditions: Homo sapiens

Substance	abundance fitness
Transcriptional activator Myb K171W, P10242	-0.598 ± 0.091
Transcriptional activator Myb K182C, P10242	-0.167 ± 0.11
Transcriptional activator Myb K182D, P10242	-0.548 ± 0.1
Transcriptional activator Myb K182E, P10242	0.01 ± 0.062
Transcriptional activator Myb K182F, P10242	-0.383 ± 0.16
Transcriptional activator Myb K182H, P10242	-0.299 ± 0.16
Transcriptional activator Myb K182I, P10242	-0.181 ± 0.14
Transcriptional activator Myb K182L, P10242	-0.051 ± 0.068
Transcriptional activator Myb K182M, P10242	0.037 ± 0.085
Transcriptional activator Myb K182N, P10242	-0.177 ± 0.15
Transcriptional activator Myb K182P, P10242	-0.678 ± 0.15
Transcriptional activator Myb K182Q, P10242	0.136 ± 0.12
Transcriptional activator Myb K182R, P10242	0.068 ± 0.056
Transcriptional activator Myb K182S, P10242	-0.161 ± 0.069
Transcriptional activator Myb K182T, P10242	-0.696 ± 0.14
Transcriptional activator Myb K182V, P10242	-0.176 ± 0.058
Transcriptional activator Myb K182W, P10242	-0.184 ± 0.076
Transcriptional activator Myb K182Y, P10242	-0.253 ± 0.17
Transcriptional activator Myb K192A, P10242	-0.247 ± 0.12
Transcriptional activator Myb K192C, P10242	-0.024 ± 0.12
Transcriptional activator Myb K192D, P10242	-0.448 ± 0.21
Transcriptional activator Myb K192F, P10242	-0.301 ± 0.29

Substance	abundance fitness
Transcriptional activator Myb K192G, P10242	-0.219 ± 0.053
Transcriptional activator Myb K192H, P10242	-0.156 ± 0.2
Transcriptional activator Myb K192I, P10242	-0.063 ± 0.14
Transcriptional activator Myb K192L, P10242	0.004 ± 0.095
Transcriptional activator Myb K192M, P10242	-0.122 ± 0.16
Transcriptional activator Myb K192N, P10242	-0.162 ± 0.43
Transcriptional activator Myb K192P, P10242	-0.082 ± 0.12
Transcriptional activator Myb K192Q, P10242	-0.337 ± 0.16
Transcriptional activator Myb K192R, P10242	-0.04 ± 0.064
Transcriptional activator Myb K192S, P10242	-0.074 ± 0.093
Transcriptional activator Myb K192T, P10242	-0.232 ± 0.13
Transcriptional activator Myb K192V, P10242	-0.207 ± 0.074
Transcriptional activator Myb K192W, P10242	-0.334 ± 0.11
Transcriptional activator Myb K192Y, P10242	-0.535 ± 0.17
Transcriptional activator Myb K204A, P10242	0.054 ± 0.091
Transcriptional activator Myb K204C, P10242	-0.317 ± 0.12
Transcriptional activator Myb K204D, P10242	-0.164 ± 0.15
Transcriptional activator Myb K204E, P10242	-0.062 ± 0.11
Transcriptional activator Myb K204F, P10242	-0.097 ± 0.19
Transcriptional activator Myb K204G, P10242	-0.166 ± 0.11
Transcriptional activator Myb K204H, P10242	-0.401 ± 0.39
Transcriptional activator Myb K204I, P10242	-0.055 ± 0.16

Substance	abundance fitness
Transcriptional activator Myb K204L, P10242	-0.07 ± 0.18
Transcriptional activator Myb K204M, P10242	-0.111 ± 0.11
Transcriptional activator Myb K204N, P10242	-0.153 ± 0.097
Transcriptional activator Myb K204Q, P10242	0.192 ± 0.19
Transcriptional activator Myb K204R, P10242	0.066 ± 0.12
Transcriptional activator Myb K204T, P10242	-0.012 ± 0.13
Transcriptional activator Myb K204V, P10242	-0.29 ± 0.22
Transcriptional activator Myb K204W, P10242	-0.443 ± 0.11
Transcriptional activator Myb K204Y, P10242	-0.16 ± 0.25
Transcriptional activator Myb L172A, P10242	-0.291 ± 0.076
Transcriptional activator Myb L172C, P10242	-0.268 ± 0.14
Transcriptional activator Myb L172E, P10242	-0.177 ± 0.089
Transcriptional activator Myb L172F, P10242	-0.35 ± 0.24
Transcriptional activator Myb L172H, P10242	-0.173 ± 0.14
Transcriptional activator Myb L172I, P10242	-0.354 ± 0.16
Transcriptional activator Myb L172K, P10242	-0.108 ± 0.1
Transcriptional activator Myb L172M, P10242	-0.175 ± 0.09
Transcriptional activator Myb L172N, P10242	-0.34 ± 0.14
Transcriptional activator Myb L172P, P10242	-0.486 ± 0.19
Transcriptional activator Myb L172Q, P10242	-0.117 ± 0.1
Transcriptional activator Myb L172R, P10242	-0.279 ± 0.056
Transcriptional activator Myb L172S, P10242	-0.236 ± 0.085

Substance	abundance fitness
Transcriptional activator Myb L172T, P10242	-0.359 ± 0.11
Transcriptional activator Myb L172V, P10242	-0.36 ± 0.073
Transcriptional activator Myb L172W, P10242	-0.303 ± 0.089
Transcriptional activator Myb L173A, P10242	-0.623 ± 0.11
Transcriptional activator Myb L173C, P10242	0.012 ± 0.12
Transcriptional activator Myb L173D, P10242	-0.958 ± 0.22
Transcriptional activator Myb L173E, P10242	-0.621 ± 0.088
Transcriptional activator Myb L173G, P10242	-1.08 ± 0.11
Transcriptional activator Myb L173I, P10242	0.253 ± 0.44
Transcriptional activator Myb L173M, P10242	-0.305 ± 0.12
Transcriptional activator Myb L173P, P10242	-0.656 ± 0.23
Transcriptional activator Myb L173Q, P10242	-1.13 ± 0.25
Transcriptional activator Myb L173R, P10242	-0.961 ± 0.078
Transcriptional activator Myb L173S, P10242	-0.933 ± 0.11
Transcriptional activator Myb L173T, P10242	-0.28 ± 0.12
Transcriptional activator Myb L173V, P10242	-0.127 ± 0.093
Transcriptional activator Myb L173W, P10242	-0.968 ± 0.11
Transcriptional activator Myb L173Y, P10242	-0.627 ± 0.31
Transcriptional activator Myb L199A, P10242	-0.05 ± 0.062
Transcriptional activator Myb L199C, P10242	-0.076 ± 0.1
Transcriptional activator Myb L199D, P10242	0.011 ± 0.12
Transcriptional activator Myb L199E, P10242	-0.005 ± 0.081

Substance	abundance fitness
Transcriptional activator Myb L199F, P10242	-0.179 ± 0.097
Transcriptional activator Myb L199H, P10242	-0.228 ± 0.2
Transcriptional activator Myb L199I, P10242	-0.056 ± 0.1
Transcriptional activator Myb L199K, P10242	0.025 ± 0.083
Transcriptional activator Myb L199M, P10242	-0.071 ± 0.095
Transcriptional activator Myb L199N, P10242	0.043 ± 0.14
Transcriptional activator Myb L199P, P10242	-0.013 ± 0.1
Transcriptional activator Myb L199Q, P10242	-0.152 ± 0.12
Transcriptional activator Myb L199R, P10242	-0.045 ± 0.057
Transcriptional activator Myb L199S, P10242	0.041 ± 0.068
Transcriptional activator Myb L199T, P10242	-0.043 ± 0.092
Transcriptional activator Myb L199V, P10242	0.032 ± 0.065
Transcriptional activator Myb L199W, P10242	-0.167 ± 0.1
Transcriptional activator Myb L199Y, P10242	-0.175 ± 0.21
Transcriptional activator Myb M189A, P10242	-0.343 ± 0.068
Transcriptional activator Myb M189C, P10242	-0.311 ± 0.095
Transcriptional activator Myb M189D, P10242	-0.384 ± 0.094
Transcriptional activator Myb M189F, P10242	-0.045 ± 0.16
Transcriptional activator Myb M189G, P10242	-0.268 ± 0.05
Transcriptional activator Myb M189I, P10242	-0.313 ± 0.19
